Measurements: patent US12099068B2, “Biomarkers for graft-versus-host disease” (Incyte Corporation, priority 2018, dated 2024)

Tested on: plasma proteins
Assay: Plasma proteins modulated between baseline and day 28 in responders (CR, VGPR, PR; n = 19), Example 6 (Table 13)
Assay type: in vivo, human
Settings: plasma protein (OLINK NPX); responders (CR, VGPR, PR; n = 19); itacitinib 200 mg or 300 mg QD with corticosteroids; day 28 vs baseline
How it was run: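 Plasma at baseline/screening and day 28 profiled for >1000 proteins by OLINK proximity extension assay, reported as NPX (log2). Steroid-naive and steroid-refractory patients pooled. Paired and unpaired t tests, ANOVA and Pearson correlation applied; significance at P<0.05.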

B1: LAMP3 (protein, UniProt Q9UQV4 28-416, looked up)
Lysosome-associated membrane …: KAFPETRDYSQPTAAATVQDIKKPVQQPAKQAPHQTLAARFMDGHITFQTAATVKIPTTTPATTKNTATTSPITYTLVTTQATPNNSHTAPPVTEVTVGPSLAPYSLPPTITPPAHTTGTSSSTVSHTTGNTTQPSNQTTLPATLSIALHKSTTGQKPVQPTHAPGTTAAAHNTTRTAAPASTVPGPTLAPQPSSVKTGIYQVLNGSRLCIKAEMGIQLIVQDKESVFSPRRYFNIDPNATQASGNCGTRKSNLLLNFQGGFVNLTFTKDEESYYISEVGAYLTVSDPETIYQGIKHAVVMFQTAVGHSFKCVSEQSLQLSAHLQVKTTDVQLQAFDFEDDHFGNVDECSSDYTIVLPVIGAIVVGLCLMGMGVYKIRLRCQSSGYQRI
In the case of B1, the “Fold Change, Decreased Expression from Baseline to Day 28” value (“Fold Change, Decreased Expression” below) is reported as −1.7705.

B2: TDRKH (protein, UniProt Q9Y2W6 1-561, looked up)
Tudor and KH …: MSTERTSWTSLSTIQKIALGLGIPASATVAYILYRRYRESREERLTFVGEDDIEIEMRVPQEAVKLIIGRQGANIKQLRKQTGARIDVDTEDVGDERVLLISGFPVQVCKAKAAIHQILTENTPVSEQLSVPQRSVGRIIGRGGETIRSICKASGAKITCDKESEGTLLLSRLIKISGTQKEVAAAKHLILEKVSEDEELRKRIAHSAETRVPRKQPISVRREDMTEPGGAGEPALWKNTSSSMEPTAPLVTPPPKGGGDMAVVVSKEGSWEKPSDDSFQKSEAQAIPEMPMFEIPSPDFSFHADEYLEVYVSASEHPNHFWIQIVGSRSLQLDKLVNEMTQHYENSVPEDLTVHVGDIVAAPLPTNGSWYRARVLGTLENGNLDLYFVDFGDNGDCPLKDLRALRSDFLSLPFQAIECSLARIAPSGDQWEEEALDEFDRLTHCADWKPLVAKISSYVQTGISTWPKIYLYDTSNGKKLDIGLELVHKGYAIELPEDIEENRAVPDMLKDMATETDASLSTLLTETKKSSGEITHTLSCLSLSEAASMSGDDNLEDDYLL
B2 was tested, and the “Fold Change, Decreased Expression” value was −1.2785.

B3: FABP4 (protein, UniProt P15090 2-132, looked up)
Fatty acid-binding protein, …: CDAFVGTWKLVSSENFDDYMKEVGVGFATRKVAGMAKPNMIISVNGDVITIKSESTFKNTEISFILGQEFDEVTADDRKVKSTITLDGGVLVHVQKWDGKSTTIKRKREDDKLVVECVMKGVTSTRVYERA
For B3, the “Fold Change, Increased Expression from Baseline to Day 28” value was 1.6926.

B4: VEGFC (protein, UniProt P49767 112-227, looked up)
Vascular endothelial growth …: AHYNTEILKSIDNEWRKTQCMPREVCIDVGKEFGVATNTFFKPPCVSVYRCGGCCNSEGLQCMNTSTSYLSKTLFEITVPLSQGPKPVTISFANHTSCRCMSKLDVYRQVHSIIRR
For B4, the “Fold Change, Decreased Expression” value was −1.1727.

B5: GSAP (protein, UniProt A4D1B5 1-854, looked up)
Gamma-secretase-activating …: MALRLVADFDLGKDVLPWLRAQRAVSEASGAGSGGADVLENDYESLHVLNVERNGNIIYTYKDDKGNVVFGLYDCQTRQNELLYTFEKDLQVFSCSVNSERTLLAASLVQSTKEGKRNELQPGSKCLTLLVEIHPVNNVKVLKAVDSYIWVQFLYPHIESHPLPENHLLLISEEKYIEQFRIHVAQEDGNRVVIKNSGHLPRDRIAEDFVWAQWDMSEQRLYYIDLKKSRSILKCIQFYADESYNLMFEVPLDISLSNSGFKLVNFGCDYHQYRDKFSKHLTLCVFTNHTGSLCVCYSPKCASWGQITYSVFYIHKGHSKTFTTSLENVGSHMTKGITFLNLDYYVAVYLPGHFFHLLNVQHPDLICHNLFLTGNNEMIDMLPHCPLQSLSGSLVLDCCSGKLYRALLSQSSLLQLLQNTCLDCEKMAALHCALYCGQGAQFLEAQIIQWISENVSACHSFDLIQEFIIASSYWSVYSETSNMDKLLPHSSVLTWNTEIPGITLVTEDIALPLMKVLSFKGYWEKLNSNLEYVKYAKPHFHYNNSVVRREWHNLISEEKTGKRRSAAYVRNILDNAVKVISNLEARNLGPRLTPLLQEEDSHQRLLMGLMVSELKDHFLRHLQGVEKKKIEQMVLDYISKLLDLICHIVETNWRKHNLHSWVLHFNSRGSAAEFAVFHIMTRILEATNSLFLPLPPGFHTLHTILGVQCLPLHNLLHCIDSGVLLLTETAVIRLMKDLDNTEKNEKLKFSIIVRLPPLIGQKICRLWDHPMSSNIISRNHVTRLLQNYKKQPRNSMINKSSFSVEFLPLNYFIEILTDIESSNQALYPFEGHDNVDAEFVEEAALKHTAMLLGL
With B5 the “Fold Change, Decreased Expression” value was −1.4153.

B6: LYVE1 (protein, UniProt Q9Y5Y7 20-322, looked up)
Lymphatic vessel endothelial …: LVQGSLRAEELSIQVSCRIMGITLVSKKANQQLNFTEAKEACRLLGLSLAGKDQVETALKASFETCSYGWVGDGFVVISRISPNPKCGKNGVGVLIWKVPVSRQFAAYCYNSSDTWTNSCIPEIITTKDPIFNTQTATQTTEFIVSDSTYSVASPYSTIPAPTTTPPAPASTSIPRRKKLICVTEVFMETSTMSTETEPFVENKAAFKNEAAGFGGVPTALLVLALLFFGAAAGLGFCYVKRYVKAFPFTNKNQQKEMIETKVVKEEKANDSNPNEESKKTDKNPEESKSPSKTTVRCLEAEV
With B6 the “Fold Change, Decreased Expression” value was −1.227.

B7: FADD (protein, UniProt Q13158 1-208, looked up)
FAS-associated death domain …: MDPFLVLLHSVSSSLSSSELTELKFLCLGRVGKRKLERVQSGLDLFSMLLEQNDLEPGHTELLRELLASLRRHDLLRRVDDFEAGAAAGAAPGEEDLCAAFNVICDNVGKDWRRLARQLKVSDTKIDSIEDRYPRNLTERVRESLRIWKNTEKENATVAHLVGALRSCQMNLVADLVQEVQQARDLQNRSGAMSPMSWNSDASTSEAS
B7 was tested, and the “Fold Change, Decreased Expression” value was −1.546.

B8: CD40-L (protein, UniProt P29965 113-261, looked up)
CD40 ligand, soluble form: MQKGDQNPQIAAHVISEASSKTTSVLQWAEKGYYTMSNNLVTLENGKQLTVKRQGLYYIYAQVTFCSNREASSQAPFIASLCLKSPGRFERILLRAANTHSSAKPCGQQSIHLGGVFELQPGASVFVNVTDPSQVSHGTGFTSFGLLKL
With B8 the “Fold Change, Decreased Expression” value was −1.5868.

B9: CLEC6A (protein, UniProt Q6EIG7 1-209, looked up)
C-type lectin domain family 6 …: MMQEQQPQSTEKRGWLSLRLWSVAGISIALLSACFIVSCVVTYHFTYGETGKRLSELHSYHSSLTCFSEGTKVPAWGCCPASWKSFGSSCYFISSEEKVWSKSEQNCVEMGAHLVVFNTEAEQNFIVQQLNESFSYFLGLSDPQGNNNWQWIDKTPYEKNVRFWHLGEPNHSAEQCASIVFWKPTGWGWNDVICETRRNSICEMNKIYL
B9 was tested, and the “Fold Change, Decreased Expression” value was −1.3248.

B10: PILRB (protein, UniProt Q9UKJ0 20-227, looked up)
Paired immunoglobulin-like …: QPGGSTGSGPSYLYGVTQPKHLSASMGGSVEIPFSFYYPWELAIVPNVRISWRRGHFHGQSFYSTRPPSIHKDYVNRLFLNWTEGQESGFLRISNLRKEDQSVYFCRVELDTRRSGRQQLQSIKGTKLTITQAVTTTTTWRPSSTTTIAGLRVTESKGHSESWHLSLDTAIRVALAVAVLKTVILGLLCLLLLWWRRRKGSRAPSSDF
B10 was tested, and the “Fold Change, Decreased Expression” value was −1.3019.

B11: EGF (protein, UniProt P01133 23-1207, looked up)
Pro-epidermal growth factor: PQHWSCPEGTLAGNGNSTCVGPAPFLIFSHGNSIFRIDTEGTNYEQLVVDAGVSVIMDFHYNEKRIYWVDLERQLLQRVFLNGSRQERVCNIEKNVSGMAINWINEEVIWSNQQEGIITVTDMKGNNSHILLSALKYPANVAVDPVERFIFWSSEVAGSLYRADLDGVGVKALLETSEKITAVSLDVLDKRLFWIQYNREGSNSLICSCDYDGGSVHISKHPTQHNLFAMSLFGDRIFYSTWKMKTIWIANKHTGKDMVRINLHSSFVPLGELKVVHPLAQPKAEDDTWEPEQKLCKLRKGNCSSTVCGQDLQSHLCMCAEGYALSRDRKYCEDVNECAFWNHGCTLGCKNTPGSYYCTCPVGFVLLPDGKRCHQLVSCPRNVSECSHDCVLTSEGPLCFCPEGSVLERDGKTCSGCSSPDNGGCSQLCVPLSPVSWECDCFPGYDLQLDEKSCAASGPQPFLLFANSQDIRHMHFDGTDYGTLLSQQMGMVYALDHDPVENKIYFAHTALKWIERANMDGSQRERLIEEGVDVPEGLAVDWIGRRFYWTDRGKSLIGRSDLNGKRSKIITKENISQPRGIAVHPMAKRLFWTDTGINPRIESSSLQGLGRLVIASSDLIWPSGITIDFLTDKLYWCDAKQSVIEMANLDGSKRRRLTQNDVGHPFAVAVFEDYVWFSDWAMPSVMRVNKRTGKDRVRLQGSMLKPSSLVVVHPLAKPGADPCLYQNGGCEHICKKRLGTAWCSCREGFMKASDGKTCLALDGHQLLAGGEVDLKNQVTPLDILSKTRVSEDNITESQHMLVAEIMVSDQDDCAPVGCSMYARCISEGEDATCQCLKGFAGDGKLCSDIDECEMGVPVCPPASSKCINTEGGYVCRCSEGYQGDGIHCLDIDECQLGEHSCGENASCTNTEGGYTCMCAGRLSEPGLICPDSTPPPHLREDDHHYSVRNSDSECPLSHDGYCLHDGVCMYIEALDKYACNCVVGYIGERCQYRDLKWWELRHAGHGQQQKVIVVAVCVVVLVMLLLLSLWGAHYYRTQKLLSKNPKNPYEESSRDVRSRRPADTEDGMSSCPQPWFVVIKEHQDLKNGGQPVAGEDGQAADGSMQPTSWRQEPQLCGMGTEQGCWIPVSSDKGSCPQVMERSFHMPSYGTQTLEGGVEKPHSLLSANPLWQQRALDPPHQMELTQ
modifications: Pro-epidermal growth factor
In the case of B11, the “Fold Change, Decreased Expression” value is reported as −1.7729.

B12: FCRL1 (protein, UniProt Q96LA6 17-429, looked up)
Fc receptor-like protein 1: AELFLIASPSHPTEGSPVTLTCKMPFLQSSDAQFQFCFFRDTRALGPGWSSSPKLQIAAMWKEDTGSYWCEAQTMASKVLRSRRSQINVHRVPVADVSLETQPPGGQVMEGDRLVLICSVAMGTGDITFLWYKGAVGLNLQSKTQRSLTAEYEIPSVRESDAEQYYCVAENGYGPSPSGLVSITVRIPVSRPILMLRAPRAQAAVEDVLELHCEALRGSPPILYWFYHEDITLGSRSAPSGGGASFNLSLTEEHSGNYSCEANNGLGAQRSEAVTLNFTVPTGARSNHLTSGVIEGLLSTLGPATVALLFCYGLKRKIGRRSARDPLRSLPSPLPQEFTYLNSPTPGQLQPIYENVNVVSGDEVYSLAYYNQPEQESVAAETLGTHMEDKVSLDIYSRLRKANITDVDYEDAM
For B12, the “Fold Change, Decreased Expression” value was −1.3733.

B13: GM-CSF-R-alpha (protein, UniProt P15509 23-400, looked up)
Granulocyte-macrophage …: EKSDLRTVAPASSLNVRFDSRTMNLSWDCQENTTFSKCFLTDKKNRVVEPRLSNNECSCTFREICLHEGVTFEVHVNTSQRGFQQKLLYPNSGREGTAAQNFSCFIYNADLMNCTWARGPTAPRDVQYFLYIRNSKRRREIRCPYYIQDSGTHVGCHLDNLSGLTSRNYFLVNGTSREIGIQFFDSLLDTKKIERFNPPSNVTVRCNTTHCLVRWKQPRTYQKLSYLDFQYQLDVHRKNTQPGTENLLINVSGDLENRYNFPSSEPRAKHSVKIRAADVRILNWSSWSEAIEFGSDDGNLGSVYIYVLLIVGTLVCGIVLGFLFKRFLRIQRLFPPVPQIKDKLNDNHEVEDEIIWEEFTPEEGKGYREEVLTVKEIT
In the case of B13, the “Fold Change, Decreased Expression” value is reported as −1.4489.
